The text below walks through data of publication PMC4576867 (The Journal of Cell Biology, 2015).

This series deals with the molecule itself. The series can be described thus: AUC.

B1: cytosolic domain of S. cerevisiae Sey1p (residues 1-680) (domain or fragment, UniProt Q99287 1-680, looked up)
chain: MADRPAIQLIDEEKEFHQSALQYFQQCIGNRDVGLDYHVISVFGSQSSGKSTLLNVLFNTNFDTMDAQVKRQQTTKGIWLAHTKQVNTTIEIDNDRPDIFVLDVEGSDGSERGEDQDFERKAALFAIAVSEVLIVNMWEQQIGLYQGNNMALLKTVFEVNLSLFGKNDNDHKVLLLFVIRDHVGVTPLSSLSDSVTRELEKIWTELSKPAGCEGSSLYDYFDLKFVGLAHKLLQEDKFTQDVKKLGDSFVMKGTENYYFKPQYHHRLPLDGWTMYAENCWDQIERNKDLDLPTQQILVARFKTEEISNEALEEFISKYDESIAPLKGNLGSLTSQLVKLKEECLTKYDEQASRYARNVYMEKREALNTKLNSHISGTINEFLESLMEKLWDDLKLEVSSRDKATTSFVESVAAGKSKIEKEFNESMETFKKLGLLISNEEITCKFSDDIEERIKQLRDAELKAKIGRIKKNLVPELKDHVIHLLSHPSKKVWDDIMNDFESTIKDNISAYQVEKDKYDFKIGLSESENAKIYKNIRILAWRTLDTTVHDYLKIDTIVSILRDRFEDVFRYDAEGSPRLWKTEEEIDGAFRVAKEHALEVFEVLSLAVTSDNVEIIPDVPMAEEESGEDNEIYRDNEGVFHSRRFAHILTELQKENVLDQFRRQINITVLDSKRSIITTRT
By stoichiometry N is commonly meant a count of units in the complex or per binding partner. Regarding B1, the “stoichiometry N” value was 2.
